Laboratory results as given in article PMC9595563 (2022).

Molecular target: SARS-CoV-2 spike RBD-Fc recombinant protein (ELISA) (SARS-CoV-2, UniProt P0DTC2)
Assay: ELISA

B1: LRRC15-His (natural protein)
chain: YHGCPSECTCSRASQVECTGARIVAVPTPLPWNAMSLQILNTHITELNESPFLNISALIALRIEKNELSRITPGAFRNLGSLRYLSLANNKLQVLPIGLFQGLDSLESLLLSSNQLLQIQPAHFSQCSNLKELQLHGNHLEYIPDGAFDHLVGLTKLNLGKNSLTHISPRVFQHLGNLQVLRLYENRLTDIPMGTFDGLVNLQELALQQNQIGLLSPGLFHNNHNLQRLYLSNNHISQLPPSVFMQLPQLNRLTLFGNSLKELSPGIFGPMPNLRELWLYDNHISSLPDNVFSNLRQLQVLILSRNQISFISPGAFNGLTELRELSLHTNALQDLDGNVFRMLANLQNISLQNNRLRQLPGNIFANVNGLMAIQLQNNQLENLPLGIFDHLGKLCELRLYDNPWRCDSDILPLRNWLLLNQPRLGTDTVPVCFSPANVRGQSLIIINVNVAVPSVHVPEVPSYPETPWYPDTPSYPDTTSVSSTTELTSPVEDYTDLTTIQVTDDRSVWGMTQAQSG
B1 was tested, and the Kd was 165 nM.
